From the supplement of paper PMC10567573

B1: TRIM14 (parent)
chain: YARTPTLDPDTMHARLRLSADRLT

Variants of: B1
Assay: protein stability index of a GFP-peptide fusion (GPS, HEK-293T) (PSI 1-6); higher = more stable
Details: c terminus: a fixed tail appended
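Note: lentivirally expressed fusions sorted by FACS into six bins by GFP to DsRed ratio, PSI derived from sequencing read proportions per bin multiplied by bin number.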

Point of comparison: YQRTPTLDPDTMHARLRLSADRLT, protein stability index 2.71. Against it:
- YARDPTLDPDTMHARLRLSADRLT — lower, 2.6
- YARPPTLDPDTMHARLRLSADRLT — higher, 2.95
- YAREPTLDPDTMHARLRLSADRLT — higher, 4.06
- YARFPTLDPDTMHARLRLSADRLT — lower, 2.21
- KARTPTLDPDTMHARLRLSADRLT — higher, 3.71
- LARTPTLDPDTMHARLRLSADRLT — higher, 3.62
- DARTPTLDPDTMHARLRLSADRLT — higher, 3.61
- GARTPTLDPDTMHARLRLSADRLT — higher, 4
- MARTPTLDPDTMHARLRLSADRLT — higher, 3.71
- HARTPTLDPDTMHARLRLSADRLT — higher, 4.06
- IARTPTLDPDTMHARLRLSADRLT — the same, 2.71
- FARTPTLDPDTMHARLRLSADRLT — lower, 2.21
- PARTPTLDPDTMHARLRLSADRLT — higher, 3.77
- RARTPTLDPDTMHARLRLSADRLT — higher, 3.64
- TARTPTLDPDTMHARLRLSADRLT — higher, 3.69
- AARTPTLDPDTMHARLRLSADRLT — higher, 3.59
- QARTPTLDPDTMHARLRLSADRLT — higher, 4.33
- VARTPTLDPDTMHARLRLSADRLT — higher, 3.68
- WARTPTLDPDTMHARLRLSADRLT — higher, 2.91
- NARTPTLDPDTMHARLRLSADRLT — higher, 3.52
- CARTPTLDPDTMHARLRLSADRLT — higher, 3.2
- EARTPTLDPDTMHARLRLSADRLT — higher, 4.17
- YADTPTLDPDTMHARLRLSADRLT — higher, 3.8
- YAATPTLDPDTMHARLRLSADRLT — lower, 2.66
- YALTPTLDPDTMHARLRLSADRLT — higher, 3.34
- YAQTPTLDPDTMHARLRLSADRLT — higher, 3.81
- YAHTPTLDPDTMHARLRLSADRLT — higher, 3.12
- YAITPTLDPDTMHARLRLSADRLT — lower, 2.57
- YAMTPTLDPDTMHARLRLSADRLT — lower, 2.53
- YAETPTLDPDTMHARLRLSADRLT — lower, 2.18
- YASTPTLDPDTMHARLRLSADRLT — higher, 2.86
- YAWTPTLDPDTMHARLRLSADRLT — lower, 1.92
- YANTPTLDPDTMHARLRLSADRLT — higher, 3.14
- YAGTPTLDPDTMHARLRLSADRLT — higher, 2.78
- YAVTPTLDPDTMHARLRLSADRLT — higher, 3
- YAYTPTLDPDTMHARLRLSADRLT — lower, 1.83
- YAPTPTLDPDTMHARLRLSADRLT — lower, 1.76
- YAFTPTLDPDTMHARLRLSADRLT — lower, 1.85
- YATTPTLDPDTMHARLRLSADRLT — higher, 3.05
- YACTPTLDPDTMHARLRLSADRLT — higher, 3.02
- YAKTPTLDPDTMHARLRLSADRLT — higher, 2.87
- YARTPCLDPDTMHARLRLSADRLT — lower, 2.34
- YARTPQLDPDTMHARLRLSADRLT — lower, 2.33
- YARTPKLDPDTMHARLRLSADRLT — lower, 2.33
- YARTPGLDPDTMHARLRLSADRLT — lower, 2.37
- YARTPSLDPDTMHARLRLSADRLT — lower, 2.28
- YARTPHLDPDTMHARLRLSADRLT — lower, 2.44
- YARTPALDPDTMHARLRLSADRLT — lower, 2.64
- YARTPPLDPDTMHARLRLSADRLT — lower, 2.3
- YARTPMLDPDTMHARLRLSADRLT — the same, 2.71
- YARTPRLDPDTMHARLRLSADRLT — lower, 1.94
- YARTPNLDPDTMHARLRLSADRLT — lower, 1.96
- YARTPDLDPDTMHARLRLSADRLT — higher, 3.4
- YARTPELDPDTMHARLRLSADRLT — higher, 2.94
- YARTPILDPDTMHARLRLSADRLT — lower, 2.1
- YARTPLLDPDTMHARLRLSADRLT — lower, 2.56
- YARTPFLDPDTMHARLRLSADRLT — lower, 2.24
- YARTATLDPDTMHARLRLSADRLT — lower, 2.08
- YARTNTLDPDTMHARLRLSADRLT — lower, 2
- YARTWTLDPDTMHARLRLSADRLT — lower, 2.37
- YARTDTLDPDTMHARLRLSADRLT — higher, 3.57
- YARTMTLDPDTMHARLRLSADRLT — lower, 1.54
- YARTKTLDPDTMHARLRLSADRLT — higher, 3.12
- YARTSTLDPDTMHARLRLSADRLT — lower, 2.16
- YARTHTLDPDTMHARLRLSADRLT — higher, 2.84
- YARTGTLDPDTMHARLRLSADRLT — higher, 2.88
- YARTITLDPDTMHARLRLSADRLT — lower, 2.17
- YARTRTLDPDTMHARLRLSADRLT — lower, 1.98
- YARTYTLDPDTMHARLRLSADRLT — lower, 2.11
- YARTETLDPDTMHARLRLSADRLT — lower, 2.62
- YARTQTLDPDTMHARLRLSADRLT — lower, 2.56
- YARTFTLDPDTMHARLRLSADRLT — lower, 2.06
- YARTCTLDPDTMHARLRLSADRLT — lower, 2.18
- YARTLTLDPDTMHARLRLSADRLT — lower, 2.34
- YARTVTLDPDTMHARLRLSADRLT — lower, 1.96
- YDRTPTLDPDTMHARLRLSADRLT — higher, 3.32
- YVRTPTLDPDTMHARLRLSADRLT — lower, 1.89
- YPRTPTLDPDTMHARLRLSADRLT — higher, 3.9
- YMRTPTLDPDTMHARLRLSADRLT — lower, 2.69
- YRRTPTLDPDTMHARLRLSADRLT — higher, 2.85
- YWRTPTLDPDTMHARLRLSADRLT — lower, 2.5
- YFRTPTLDPDTMHARLRLSADRLT — higher, 2.74
- YLRTPTLDPDTMHARLRLSADRLT — higher, 2.77
- YERTPTLDPDTMHARLRLSADRLT — higher, 3.71
- YNRTPTLDPDTMHARLRLSADRLT — higher, 3.09
- YYRTPTLDPDTMHARLRLSADRLT — higher, 2.9
- YKRTPTLDPDTMHARLRLSADRLT — higher, 2.98
- YSRTPTLDPDTMHARLRLSADRLT — lower, 2.44
- YHRTPTLDPDTMHARLRLSADRLT — lower, 2.46
- YIRTPTLDPDTMHARLRLSADRLT — lower, 1.73
- YGRTPTLDPDTMHARLRLSADRLT — higher, 3.06
- YTRTPTLDPDTMHARLRLSADRLT — lower, 2.46
- YCRTPTLDPDTMHARLRLSADRLT — lower, 2.53
